Measurements taken from the DeepSol protein solubility set.

Assay: soluble on expression in E. coli; label from the status in PepcDB or PDB records

| Sequence | soluble on expression in E. coli |
| --- | --- |
| MSLGRMFGTDGVRGIANKELTAELAYRLGRAGAYVLTNETHKPKILVGMDTRISGDMLEAALVSGILSVGAEAVCVGIVPTPAVAYLTRKYKADAGVVISASHNPVEYNGIKFFDAKGYKLSDNLEDEIQKIIESDFEGVPLPTGESVGRKVVEESAEEDYIKFAKSTIGTDLKGMKIALDCANGAAYKTAVKTFRELGAQVTVINNDPDGININCNCGSTHPEELMDYVVKKNCDLGLAFDGDADRCLAVDEKGNLIDGDFIMAICGKYLKDKGELHKDVVVVTVMSNMGLFLALDKANIKTVKTKVGDRYVLEEMLKEGYKLGGEQSGHIIFLDYNTTGDGLVTALKICSIVKESRKTLSKLASIMHKLPQVLANAKVPNNKKDIYLEDKEISDEIKKIEEELHGKGRVLIRPSGTEPLVRVMLEGEDQDRLNTLAHGLAELIEKKANEGHHHHHH | soluble |
| SGGRRSSWIKNWTLWKHFKDYFPIHLIKTQDLDPSHNYIFGFHPHGIMAVGAFGNFSVNYSDFKDLFPGFTSYLHVLPLWFWCPVFREYVMSVGLVSVSKKSVSYMVSKEGGGNISVIVLGGAKESLDAHPGKFTLFIRQRKGFVKIALTHGASLVPVVSFGENELFKQTDNPEGSWIRTVQNKLQKIMGFALPLFHARGVFQYNFGLMTYRKAIHTVVGRPIPVRQTLNPTQEQIEELHQTYMEELRKLFEEHKGKYGIPEHETLVLK | soluble |
| MKAKTDFFHMKQAGEPIVMVTAYDFPSAKLAEQAGVDMILVGDSLGMVVLGYDSTIPVTVDDMIHHTKAVRRGAPNTFIVTDMPFMSYHASKEEALQNARRIMQESGANAVKVEGADEVVDMIAALTKAGVPVVAHLGLTPQSVGVLGGYKVQGKDAESAKKLLDDAKQCEQAGAIALVLECVPKQLGAAMARELTIPVIGIGAGAEVDGQVLVYHDLLGYGVTRVPKFVKQYASIQETIVEALANYVADVKLRQFPEPAHTFTMKEEEWVALYGGKQG | not soluble |
| GPGSMPQSAVMNVMVQAAMKAGRSLVRDYGEVQNLQVSLKGPADYVSQADRKAEKIIFNELSKARPKFGFLMEESEEIIGEDSQHRFIVDPLDGTTNFLHGIPFFAVSIALESQGKIVAGVIYNPINDELFTAERGSGAFFNDRRCRVSARRRLEDCVIATGMPHLGRPGHGTYLIELRNVMAEVSGIRRFGTAALDLAYVAAGRTDGFWEDNLQIWDMAAGILMVREAGGFVTDKEGGNDIFRKKNIIAGNEHIRIKLERALKKGI | soluble |
| MGSDKIHHHHHHMTQTTPQPDPSRLRDELVRLHGKASPEWDSLVRLDPRFVDAYLKFAGVPQRRNHLDDKTRAFIALAADACATQLYAPGVARHIERALSFGATREELIEVLELVSTIGIHTSNVGVPVLLEVLEEEGLRKGAPPLDERRQKLKAEFETNRGYWHPTWEGLLELDPDLFEAYVEFSSVPWRTGVLSPKIKEFMYCAFDASATHLYVPGLKLHIRNALRYGATAEELMELLEIVSVTGIHGAELGAPLLEAALKRSGAAAGEPHA | not soluble |
| GMALQEEFIDVNGTRVFQRKMVTDSNRRSIALFHGYSFTSMDWDKADLFNNYSKIGYNVYAPDYPGFGRSASSEKYGIDRGDLKHAAEFIRDYLKANGVARSVIMGASMGGGMVIMTTLQYPDIVDGIIAVAPAWVESLKGDMKKIRQKTLLVWGSKDHVVPIALSKEYASIISGSRLEIVEGSGHPVYIEKPEEFVRITVDFLRNL | soluble |
| FSDIASLQRFIKLNQSDWLFEMLATERFTSYFQPIVSIKDTSQIFGYESLLRGLDEEGNLMLPTPIMELATEAGLIPQLDQIARLSAITEFSRYKVSGHIFINFAPTSLYDPAFCLSSSVEAIDTAEISHDRVVFEVVESDNPQDLTHLKAVLKYYRDAGFLVALDDLGSGYSSLNLLHQLRPDFIKLDMELIRDVHQDLYKASITEKLLEITQKLNIQTVAEGIECIEELNWLRERGANLAQGYLIAKP | not soluble |
| MAHPLDLNQLAQHIKQWGQSLGFQQVGICDTDLTAEEPRLQAWLDKQYHGEMAWMARHGMLRARPHELLPGTLRVISVRMNYLPAKAAFASTLNNPELGYVSRYALGRDYHKLLRQRLKKLGDQIQHYCLEQNNLDRHDLELHDLEQHDSERQGQPEQHTASEINFRPFVDSAPIMERSLAAKAGIGWVGKHSLILNRDAGSWFFLGELLIDLPLPVDKPQEEQCGRCVACMTTCPTGAIVAPYTVDARRCISYLTIELEGAIPEEFRPLMGNRIYGCDDCQLICPWNRFSQLTDEDDFSPRAVLHTPQLLDLFAWNEEKFLRVTEGSAIRRIGHLRWLRNISVALGNAPYLDSIVLALETRRGLHPMLDEHIEWAISQQLARRATQAVEVQLPQKKRLIRAIEKGLPRDA | not soluble |
| MTKQQIEKLADLLPPFAATLYLDMIPEFQEGYASYVYQTPKQDIQKRRIKQLTKNFERLLDTPSFYVMPVTRKTAEQLLADKGLAYHLLSTVAANQVFAAAVNEDQMLFQVLRNGARVAFVILQEKGEFLEMTLGILETVTENEVPAAIVEAVQTYLLADMQEKLPSLSIMVSQESSKLFYQEQGFVLLAKGCKPGNENDSDVCQLVKYFSKP | not soluble |
| MIPLMHDFEGETVLVVGGGSVGARKARTFATEASVVVLSPEFGDRTFADAEKVRAAPTPEDATDWVERTDPALVVAATDDSDLNGAFSTAAAEHGALVNRTDDHGDQSFGNIVVPATVRDDPVTLAIATGGRAPALSKHLRERFEDEFGNAGLMADLVGDLREDLRDRGVPPAKRRDAVRFVVRSREVWKALDSGRSKGEQVARDVIGELPGDQT | not soluble |
| MGSDKIHHHHHHMFQYRFKWSFSSDPNLSDRLFELIEVIFPGLNDLVERGRKLGASWESASTPFIRFHDDVAITHVGVLEIPMVIMGQRVTVGGIHGVATRPEFRRKGYYREVIEEVLEYCDQIYETLILTTPEPEYHLPFGFRVVEEYIFHLKCSSKGNVNGWRILDFSDNQDLALLHRLLETRAPVSHVVGVVNEKPVFFVNEGSRDLYYAEDLDLIACIKIENNRLHIFDLVATKICSLKEILGRTSEVIEEVKIYFSPDLLDVDNVQAFPYKLEDTVLMIRGQFAAVGEKFMLPRSARC | not soluble |
| MSLGIAGTNTVRLQVYTNLKTFKSGDEISDGWVAKFHTDGDYIKWFAIENEDSLEGKEIKLFDTYKVDYTGTIKEKEKGKVTYAVLKAYVAIDPLERQYKELTLGIGDEIEDTAYSIKDVDVEFEPKETYIPKKLTEPITVLDTEIMEQGLENVDSNLILVGGPVVNKVTAALAEDLGVPTTYDEWKEKFGTGADSGQIIYKEKCSKIGGYGVLLVAGTDREGTRAAAEALLEYISKLEGHHHHHH | soluble |
| MAVPESKEALIKAINSQFTLLMKKIDAVPAERAFSPEMAGHAQGTQMSPANLVAYLLGWGNVVLKWHEDEEQGKTIDFPEAGYKWNQLGLLAQKFYQDYAPITDWAELIALLAANKLALIALVERYTDEQLYGEGWYGKWTRGRMIQFNTAAPYKNAAGRLRTWEKNKLEHHHHHH | not soluble |
| MSLNKEPDPPLAESLRPQHIDEVIGQSHLLGEGKPLRLCFMGSKLHSMILWGPPGVGKTTIARLTAQAFDCEWIALSAVFSGVKDIRAAVEKAQEYLIHDKQTILFIDEIHRFNKAQQDALLPYTESGLITFIGATTENPSFEVNSALLSRAQVYVLKPLSEQELKLLFLRAHQRALSSLQFTEEAVDFLISCADGDARRLLNLLEQTKTACLTIKTAVVDVELLHNVIVQNSRRFDKGGEAFYDQISALHKSVRGSNPDAALYWLCRMLDGGVDPYYLARRIIRMSWEDIGLADPKAIQIANDAAATYERLGSPEGELALAQAVIYLSVAAKSNAGYVAFNQAMEFIKRDKSREVPIHLRNAPTQLMKKLGYGHEYRYAHDEPHGYAAGECYLPEGMPEVNWYNPVQRGLETKIAEKLAFLRQLDKDVKKEGHHHHHH | soluble |
| MSLKLFPQFDGISLKDRFFLLESFKVDVLANNVYYTESSLVPFLSKMKGVLARDGNIKHYLAEGKRICVLGDVHGSPMDVSAFYDLCMLKDVQLQCFQEVGDDRGSQFTMDLSSVYVFLGDYVDRGSRGLACVLFIYVLKYLYPRNVLLLRGNHECDAMNRIYGFTKEIYKYYGSHSPIYQAIQDTFAAIPYFFRLIYLPQSLCRALERFCNRVIPSASSSTRWTNSEIMCLASMVSSVTSWAGQAGATNEAKLDDLADSQEAHMLKCRLEEESLTIFCCHGGPPCVYTEYGRQLDLYLGIDSYENILQRSLTIVDPLAGELTWNDPAPHRFKSPSTLYEPSQRRLGYRYSYDLFRTWCKHTGVDLVLRGHEVALDGVHQDFQYAFEPKQLGGPNQELEYWFSVSTLRETPRHFTVFSSSFYEHLTNHGAAAIIRFEVPVDGVAPALVIRCFTLSEGHHHHHH | not soluble |
| VAVRPVLAVGSYLPHAPWPWGVIDQAARVLLPASTTVRAAVSLPNASAQLVRASGVLPADGTRRAVLYLHGGAFLTCGANSHGRLVELLSKFADSPVLVVDYRLIPKHSIGMALDDCHDGYRWLRLLGYEPEQIVLAGDSAGGYLALALAQRLQEVGEEPAALVAISPLLQLAKEHKQAHPNIKTDAMFPARAFDALDALVASAAARNQVDGEPEELYEPLEHITPGLPRTLIHVSGSEVLLHDAQLAAAKLAAAGVPAEVRVWPGQVHDFQVAASMLPEAIRSLRQIGEYIREATG | not soluble |
| MALWGGRFSQAADQRFKQFNDSLRFDYRLAEQDIIGSVAWSKALVTVGVLNADEQQQLEQALSVLLEEVQANPHAILASDAEDIHSWVETKLIDKVGDLGKKLHTGRSRNDQVATDLKLWCKFQITELQTAVQQLQQALVMTAEANQDAVMPGYTHLQRAQPVTFAHWCLAYVEMLSRDESRLQDTLKRLDVSPLGCGALAGTAYAIDREQLAGWLGFASATRNSLDSVSDRDHVLELLSDASIGMVHLSRFAEDLIFFNSGEAAFVDLSDRVTSGSSLMPQKKNPDALELIRGKCGRVQGALTGMTMTLKGLPLAYNKDMQEDKEGLFDALDTWLDCLHMAALVLDGIQVKRPRCKEAAEQGYANATELADYLVAKGVPFREAHHIVGEAVVEAIRQGKALEALALSDLQQFSSVIGDDVYPILALQSCLDKRVAKGGVSPQQVASAIAEAKARLF | not soluble |
| MGSDKIHHHHHHAFLTLKPVKTPFTMYSSVLGDFVITQLDENKQLHRYDTKGNTYTQQQVDSLLPSLYVRQLTADERFPDTICGKAVSPKDIQLTNFTFKSVPSAINAPQTGLYFLMESMSKRVDLKMPEDAFRFTDKGIEFIRMETNCIDEAKSKLFTDMLVQKGFAFPACYASGNPTTRKDYDEGYLVLDANHKLFHLKCTKGRPYVKAIQLPEGVLPEYVFITEFRSRRTLGYMVDSKHHFYIINSDGSLVKSALPGFDPAKDELTIFGNMFDWTVKLSTDKDDYYYALDATDYSLIKEHAYKDIRRSVPGLSFTSPDDKFVKPRF | not soluble |
| DAHSLWYNFTIIHLPRHGQQWCEVQSQVDQKNFLSYDCGSDKVLSMGHLEEQLYATDAWGKQLEMLREVGQRLRLELADTELEDFTPSGPLTLQVRMSCECEADGYIRGSWQFSFDGRKFLLFDSNNRKWTVVHAGARRMKEKWEKDSGLTTFFKMVSMRDCKSWLRDFLMHRKKRLE | soluble |
| MPKIYTKTGDKGFSSTFTGERRPKDDQVFEAVGTTDELSSAIGFALELVTEKGHTFAEELQKIQCTLQDVGSALATPCSSAREAHLKYTTFKAGPILELEQWIDKYTSQLPPLTAFILPSGGKISSALHFCRAVCRRAERRVVPLVQMGETDANVAKFLNRLSDYLFTLARYAAMKEGNQEKIYMKNDPSAESEGL | soluble |
